According to article PMC9489729 (2022):

Experiments:
[1] = biological target: T1, C-terminally His-tagged RavA (E. coli, UniProt P31473 1-498); test: BLI; + ATP, KD2 second site (2:1 heterogeneous ligand model), pH 7.5
[2] = biological target: T1, C-terminally His-tagged RavA; test: BLI; + ATP, KD1 (2:1 heterogeneous ligand model), pH 7.5
[3] = biological target: T1, C-terminally His-tagged RavA; test: BLI; no nucleotide, pH 7.5
[4] = biological target: T1, C-terminally His-tagged RavA; test: BLI; + ADP, pH 7.5

T1 sequence (P31473 whole entry): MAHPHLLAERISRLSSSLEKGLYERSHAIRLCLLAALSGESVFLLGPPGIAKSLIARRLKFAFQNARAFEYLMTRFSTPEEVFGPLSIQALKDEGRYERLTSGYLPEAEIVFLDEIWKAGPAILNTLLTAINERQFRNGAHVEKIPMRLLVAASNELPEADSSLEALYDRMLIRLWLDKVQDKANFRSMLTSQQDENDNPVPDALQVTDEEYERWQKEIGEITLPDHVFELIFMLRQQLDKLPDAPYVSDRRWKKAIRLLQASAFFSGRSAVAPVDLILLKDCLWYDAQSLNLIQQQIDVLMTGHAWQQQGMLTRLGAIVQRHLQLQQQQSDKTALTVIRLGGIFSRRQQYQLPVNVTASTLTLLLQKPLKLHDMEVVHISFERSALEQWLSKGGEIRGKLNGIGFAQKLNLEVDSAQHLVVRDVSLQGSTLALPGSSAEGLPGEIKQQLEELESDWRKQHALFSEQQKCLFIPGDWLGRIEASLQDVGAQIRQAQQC

Kd [1]: 4.8 µM
Kd [2]: 13.1 µM
Kd [3]: 33.3 µM
Kd [4]: 12.4 µM
B1: His-NTV-AviTag (domain or fragment)
chain: MLTLDTLNVMLAVSEEGLIEEMIIALLASPQLAVFFEKFPRLKAAITDDVPRWREALRSRLKDARVPPELTEEVMCYQQSQLLSTPQFIVQLPQILDLLHRLNSPWAEQARQLVDANSTITSALHTLFLQRWRLSLIVQATTLNQQLLEEEREQLLSEVQERMTLSGQLEPILADNNTAAGRLWDMSAGQLKRGDYQLIVKYGEFLNEQPELKRLAEQLGRSREAKSIPRNDAQMETFRTMVREPATVPEQVDGLQQSDDILRLLPPELATLGITELEYEFYRRLVEKQLLTYRLHGESWREKVIERPVVHKDYDEQPR
modifications: biotinylated for the BLI binding studies (50 μM D-biotin added to the LB medium during expression)
